In paper PMC10716038, “Talin and kindlin use integrin tail allostery and direct binding to activate integrins” (Nature Structural & Molecular Biology, 2023):
No end group written: not given here.

Legend:
Conditions in all cases: both partners purified
THD1 K404A [1] = target: T1, THD1 K404A (UniProt P26039 1-405, K404A); experiment: MST; apparent; THD1 or THD1 mutants titrated to 488–β3-CT in the presence of 30-40 µM KIND2; MST buffer
T1 construct: talin-1 (TLN1) head domain, residues 1-405, K404A; source: E. coli (DE3) Rosetta 2, purified (IMAC, SEC); not shown: His10-SUMO, N-terminal, cleaved

THD1 KKAA [2] = target: T2, THD1 KKAA (UniProt P26039 1-405, KKAA (KK402/403)); experiment: as above
T2 construct: the sheet prints only 'KKAA'; source: E. coli (DE3) Rosetta 2, purified (IMAC, SEC); not shown: His10-SUMO, N-terminal, cleaved

THD1 I396A [3] = target: T3, THD1 I396A (UniProt P26039 1-405, I396A); experiment: as above
T3 construct: talin-1 (TLN1) head domain, residues 1-405, I396A; source: E. coli (DE3) Rosetta 2, purified (IMAC, SEC); not shown: His10-SUMO, N-terminal, cleaved

[4] = target: T4, talin-1 head domain (THD1) (UniProt P26039 1-405); experiment: MST; unlabelled protein titrated to 50-200 nM ATTO 488-labelled β-CT peptide, no third protein; 20 mM Tris pH 7.5, 200 mM NaCl, 1 mM TCEP, 0.05% Tween-20; Kd of individual titrations (in S0002 mean and sd, n = 2)
T4 construct: talin-1 (TLN1) head domain (THD), residues 1-405; murine TLN1 cDNA is named only for the cell lines; also called WT; source: E. coli (DE3) Rosetta 2, purified (IMAC, SEC); not shown: His10-SUMO, N-terminal, cleaved

THD1 K403A = target: T5, THD1 K403A (UniProt P26039 1-405, K403A); experiment: as above
T5 construct: talin-1 (TLN1) head domain, residues 1-405, K403A; source: E. coli (DE3) Rosetta 2, purified (IMAC, SEC); not shown: His10-SUMO, N-terminal, cleaved

THD1 K404A [5] = target: T1, THD1 K404A; experiment: as above
THD1 KKAA [6] = target: T2, THD1 KKAA; experiment: as above
THD1 Δ401-405 = target: T6, THD1 Δ401-405 (UniProt P26039 1-405, Δ401-405); experiment: as above
T6 construct: source: E. coli (DE3) Rosetta 2, purified (IMAC, SEC); not shown: His10-SUMO, N-terminal, cleaved

THD1 Y395A = target: T7, THD1 Y395A (UniProt P26039 1-405, Y395A); experiment: as above
T7 construct: talin-1 (TLN1) head domain, residues 1-405, Y395A; source: E. coli (DE3) Rosetta 2, purified (IMAC, SEC); not shown: His10-SUMO, N-terminal, cleaved

THD1 I396A [7] = target: T3, THD1 I396A; experiment: as above
THD1 I398A = target: T8, THD1 I398A (UniProt P26039 1-405, I398A); experiment: as above
T8 construct: talin-1 (TLN1) head domain, residues 1-405, I398A; source: E. coli (DE3) Rosetta 2, purified (IMAC, SEC); not shown: His10-SUMO, N-terminal, cleaved

THD1 I399A = target: T9, THD1 I399A (UniProt P26039 1-405, I399A); experiment: as above
T9 construct: talin-1 (TLN1) head domain, residues 1-405, I399A; source: E. coli (DE3) Rosetta 2, purified (IMAC, SEC); not shown: His10-SUMO, N-terminal, cleaved
T9 sequence (P26039 1-405 I399A): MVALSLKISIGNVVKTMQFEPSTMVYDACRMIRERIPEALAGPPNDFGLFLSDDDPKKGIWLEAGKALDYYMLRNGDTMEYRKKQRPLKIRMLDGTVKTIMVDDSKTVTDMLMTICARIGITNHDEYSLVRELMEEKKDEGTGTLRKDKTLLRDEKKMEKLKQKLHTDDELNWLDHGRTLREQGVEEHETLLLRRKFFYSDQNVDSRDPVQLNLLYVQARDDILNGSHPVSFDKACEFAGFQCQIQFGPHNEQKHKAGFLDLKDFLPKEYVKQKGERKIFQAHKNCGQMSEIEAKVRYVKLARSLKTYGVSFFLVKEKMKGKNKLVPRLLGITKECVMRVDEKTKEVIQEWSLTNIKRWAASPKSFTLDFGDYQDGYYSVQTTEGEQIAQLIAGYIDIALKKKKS

T2 sequence (P26039 other isoform, or with tags, fused parts or gaps KKAA (KK402/403) | KKAA (KK402/403)): as the sequence (P26039 1-405 I399A) above, with A399I, K402A, K403A counted along it
T3 sequence (P26039 1-405 I396A): as the sequence (P26039 1-405 I399A) above, with I396A, A399I counted along it
T1 sequence (P26039 1-405 K404A): as the sequence (P26039 1-405 I399A) above, with A399I, K404A counted along it
T4 sequence (P26039 1-405): as the sequence (P26039 1-405 I399A) above, with A399I counted along it
T8 sequence (P26039 1-405 I398A): as the sequence (P26039 1-405 I399A) above, with I398A, A399I counted along it
T5 sequence (P26039 1-405 K403A): as the sequence (P26039 1-405 I399A) above, with A399I, K403A counted along it
T6 sequence (P26039 1-400, stated change not applied): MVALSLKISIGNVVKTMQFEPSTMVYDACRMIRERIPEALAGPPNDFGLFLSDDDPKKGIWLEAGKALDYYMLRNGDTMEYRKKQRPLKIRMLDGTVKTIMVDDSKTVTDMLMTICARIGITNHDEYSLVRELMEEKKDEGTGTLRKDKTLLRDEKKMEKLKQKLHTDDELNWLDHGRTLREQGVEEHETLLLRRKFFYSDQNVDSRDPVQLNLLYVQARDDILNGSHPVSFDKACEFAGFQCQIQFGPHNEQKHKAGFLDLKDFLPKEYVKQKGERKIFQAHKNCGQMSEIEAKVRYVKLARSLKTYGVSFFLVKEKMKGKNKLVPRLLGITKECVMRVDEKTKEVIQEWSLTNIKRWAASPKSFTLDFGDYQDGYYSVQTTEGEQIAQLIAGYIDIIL
T7 sequence (P26039 1-405 Y395A): as the sequence (P26039 1-405 I399A) above, with Y395A, A399I counted along it

B1: ATTO 488-labeled integrin β3 cytoplasmic tail (488–β3-CT) (peptide, UniProt O54890 741-787, looked up)
peptide: {ATTO 488}-KLLITIHDRKEFAKFEEERARAKWDTANNPLYKEATSTFTNITYRGT
notes: integrin β3 cytoplasmic tail (β3-CT); source: synthetic peptide (MPIB Core Facility)
Kd (THD1 K404A [1]): 116 µM
Kd (THD1 KKAA [2]): 88.3 µM
Kd (THD1 I396A [3]): 551 µM
Kd [4]: 105 µM
Kd (THD1 K403A): 68.1 µM
Kd (THD1 K404A [5]): 90.1 µM
Kd (THD1 KKAA [6]): 62.1 µM
Kd (THD1 Δ401-405): 250 µM
Kd (THD1 Y395A): 27.7 µM
Kd (THD1 I396A [7]): 579 µM
Kd (THD1 I398A): 141 µM
Kd (THD1 I399A): 55.2 µM
